Molecular target: 6His–PAK4cat (PAK4 286–591) (human, UniProt O96013 286-591)
Assay: kinase activity inhibition (GST-Raf13 phosphorylation)

Chain of 6His–PAK4cat (PAK4 286–591) (O96013 286-591): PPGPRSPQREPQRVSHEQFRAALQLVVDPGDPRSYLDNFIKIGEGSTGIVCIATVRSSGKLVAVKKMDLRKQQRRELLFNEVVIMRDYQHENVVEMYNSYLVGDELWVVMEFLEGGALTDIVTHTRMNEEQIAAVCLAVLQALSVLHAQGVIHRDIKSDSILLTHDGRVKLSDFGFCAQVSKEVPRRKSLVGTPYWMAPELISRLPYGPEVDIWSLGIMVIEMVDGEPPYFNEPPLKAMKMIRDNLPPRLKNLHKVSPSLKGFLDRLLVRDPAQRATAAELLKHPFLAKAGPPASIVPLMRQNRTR

| IC50 [nM] | Binder |
| --- | --- |
| 36 | EAEDWTAALLNRGRSRQPLVLGDNCFADLVHNWMELPE (domain or fragment, GST carrier left out. Limits 166-203 are the paper's, taken from the 4XBR fusion: Flag/SGS 1-12, iBox 13-50, EF linker 51-52, PAK4 278-591 from 53 (12+38+2+314=366). Entity position = paper number - 153 (F191=F38, L194=L41, V195=V42, P(0)=P30). The paper's Inka1 numbering may differ from UniProt Q96EL1 (paper's C-terminus is 285, entry is 287 aa).) [GST-iBox (Inka1 166–203)] |
| 229 | AEDWTAALLNRGRSRQPLVLGDW [iBox 23mer synthetic peptide] |
| 300 | VSRFAALMSCRSRQPIICNDVSYL (synthetic peptide; exact limits are only in Fig. 1d; taken as the last 24 residues because the text gives a 24mer of iBox-C (C-terminal 22 aa of Inka1)) [iBox-C24] |
| 382 | SRQPLVLGDNCFADLVHNWMELPE (synthetic peptide; taken as the C-terminal 24 residues (paper numbering 180-203) of the 38-aa iBox; 4XBR position = Inka1 paper number minus 153; exact limits are only in Fig. 1d) [iBox24C] |

From article PMC4674680 (2015)
